Experimental data reported in article PMC2886590.

Target: MLL PHD3 finger (residues 1565-1627), GST cleaved (human) (UniProt Q03164)
Assay: other fluorescence titration

Chain of MLL PHD3 finger (residues 1565-1627), GST cleaved (human) (Q03164 1565-1627): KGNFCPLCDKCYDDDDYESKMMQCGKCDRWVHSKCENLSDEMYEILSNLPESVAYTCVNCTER

Kd: 19 µM
Substance: H3K4me3 peptide (12-mer histone tail peptide)
